Reference: paper PMC8724117

Target: dual anticoagulant and antiplatelet (APAC) agent (human) (UniProt P02768)
Experiment: atomic force microscopy (tapping mode AFM); APAC alone (1:1000 and 1:20,000 dilution of stock) in PBS with 20 mM MgCl2, drop-casted on mica, imaged in air; volume distribution of 340 molecules evaluated with Gwyddion

“dual anticoagulant and antiplatelet (APAC) agent (from UniProt P02768 25-609)” gave a stoichiometry N of 3.
